Experimental data reported in the DeepSol protein solubility set.

Test: soluble on expression in E. coli; label from the status in PepcDB or PDB records

| Sequence | soluble on expression in E. coli |
| --- | --- |
| MAHHHHHHMLGACYPIPSGISLSLSRSRAYDVVYHYTRAAHIRLRLHGSGHSGEHMAAAEQRTCRPHLLWRLDGRPHADSIGHGLADDTRLCARVDLRRMLVACPRWGQSRAFIPQSRRLRALPRDGLRACLRGAVLPSGLATVTMVADDTT | not soluble |
| MIRELVTTAAITGAAIGGAPVAGADPQRYDGDVPGMNYDASLGAPCSSWERFIFGRGPSGQAEACHFPPPNQFPPAETGYWVISYPLYGVQQVGAPCPKPQAAAQSPDGLPMLCLGARGWQPGWFTGAGFFPPEP | soluble |
| MGHHHHHHGGHMSLNTISSLETTDLPAAYHIEQRAHAFPWSEKTFASNQGERYLNFQLTQNGKMAAFAITQVVLDEATLFNIAVDPDYQRQGLGRALLEHLIDELEKRGVATLWLEVRASNAAAIALYESLGFNEATIRRNYYPTTDGREDAIIMALPISMEGGS | soluble |
| MGSSHHHHHHSSGTIEGRMIRLTDNRPIGFIDSGVGGLTVVKEALKQLPNENILFVGDTARCPYGPRPAEQVIQYTWEMTDYLVEQGIKMLVIACNTATAVALEEIKAALSIPVIGVILPGTRAAVKKTQNKQVGIIGTIGTVKSQAYEKALKEKVPELTVTSLACPKFVSVVESNEYHSSVAKKIVAETLAPLTTKKIDTLILGCTHYPLLRPIIQNVMGENVQLIDSGAETVGEVSMLLDYFNLSNSPQNGRTLCQFYTTGSAKLFEEIAEDWLGIGHLNVEHIELGGK | soluble |
| GDAFCNPQATMDFLRFKLHQHQREVFAVMMLDSQHRLIEFNEMFFGTIDSASVYPREVVKAVLLCNAAAVIFAHNHPSGCAEPSSADRRITERLIAALATIDVPVLDHIVVADTCVSFAERGLL | not soluble |
| MLTERQLLIFRAIIDHFTWTIQPVGSKNLLKEKSLPYSSATIRNEMGVLEEYGFIEKTHSSSGRVPSEKGYRFYVDYLLQPKKLDKSDRQMIRSFFSENYYEMEGLIQNSALMLSDLTNYTSILLGPEATKNHLSGFRFVPINNFQAMLILITDQGHVDNHLVTIPEGTTLSDIERMVNILNERLVGLSLDDLKVQIPMEVKELLGKHVRNYESFMHVFSDSFAQASQQKVYFGGKTNILNQPEFHDINKVREMLHLMEEEQDVYELFRDIPDGLQVKIGRENNNSLMEDCSIITATYNIAGERVGGIVLLGPTRMEYSRMMGLVDVMSRDLTDVLTKLYRDNQN | not soluble |
| MITRIPRSSFSANINNTAQTNEHQTLSELFYKELEDKFSGKELATPLLKSFSENCRQNGRHIFSNKDFVIKFSTSVLQADKKEITIINKNENTTLTQTIAPIFEKYLMEILPQRSDTLDKQELNLKSDRKEKEFPRIKLNGQCYFPGRPQNRIVCRHIAAQYINDIYQNVDYKPHQDDYSSAEKFLTHFNKKCKNQTLALVSSRPEGRCVAACGDFGLVMKAYFDKMESNGISVMAAILLVDNHALTVRLRIKNTTEGCTHYVVSVYDPNVTNDKIRIMSESKENIKHYSLMDFMNVDYSLLKWSNDHVINQSVAIIPALPKEQLLMLKGSVDEITPPLSPATMNLLMAIGQNHQLTQLMIQLQKMPELHRTEMLTAYNSINLPGLYLAINYGNADIVETIFNSLSETGYEGLLSKKNLMHILEAKDKNGFSGLFLAISRKDKNVVTSILNALPKLAATHHLDNEQVYKFLSAKNRTSSHVLYHVMANGDADMLKIVLNALPLLIRTCHLTKEQVLDLLKAKDFYGCPGLYLAMQNGHSDIVKVILEALPSLAQEINISASDIVDLLTAKSLARDTGLFMAMQRGHMNVINTIFNALPTLFNTFKFDKKNMKPLLLANNSNEYPGLFSAIQHKQQNVVETVYLALSDHARLFGFTAEDIMDFWQHKAPQKYSAFELAFEFGHRVIAELILNTLNKMAESFGFTDNPRYIAEKNYMEALLKKASPHTVRAAALEHHHHHH | not soluble |
| MPMVLVVLDHDGNRLKKGSLEALTRARDLAQALGGKVAGVLLAEEKAPVEEARKYVEVLYTATLGPYTAEKWAAGVLKAAEASGAKAVVAPSSRQSRAYLGRVAYALRAGLLEDTLESRVEGGEVHATRYAYLNRVTQRVKAALPVVLTVKPNTTPLAEPLPGEAEAVALSVPEVPTVEVLERLQEEKKGVSLTEADVVVTGGRGMGSPEAFKLVEELAALLGGAVGATRAVVDAGWRPYAEQVGQTGKTVQPSLYIALGVSGAVQHLAGMNKSKYIVAVNKDPEAPIFKHADYGIVGDVHQVLPALIEAVKKLKD | soluble |
| MTVYKGSKKEAKPKECLLFFDKKTNTVRLEKITSNINVKKTRDLDQGTELALKRGIERLRTSSNNQRSGPSSPEEKAKIQKQMQRDTSDSSSDSDGSSDSDKSNGDSSDDEDESEKILLEEMKKPKPYTEREPAPPSSSNTYNHKESHVAPYISSSGNKNKDSEEKYGLALSESSDEDD | not soluble |
| MSLKRDELKLDYQRHQFYEYFNSIFNYDILDASISENIYLLRKTTDKLFYIEFENQLFETVMFLSMKTLVLDINSFSKEIGNKSEAYEQYIQQIKEENGINNFFDRYPYLLKQINREVRLIEESYSLLFDRFLKDLSELRSCFNITEPLSNVEFSLGDSHSQKQTVVKIEFKGKSIYYKPKSYDSYNILLELISLLKSNNIPSFSLPESLIKADYCWQLGVDYINSNNDEVKRIYFKYGVLAAFSEIFSITDLHMENVIVSGGDLYLIDVETFFQRKLNVQTNNFEGITVDTYQRIYETSLSNGLFPVQFEKNSAPNISGISGKGGKRKKGKYELINKNRGDMKLVKTDYFQEDSYNIPTLNEKMVEPLDYANEVIAGFRECYTFLMTQRAKVKKILYGFPKLRTRAIFRNTSDYGKFLQASTNPKYLFSEKKRENLFSILYESKHIEQFIVDSEIKDLMNGDIPYFSMDPNGNVYNSLGTVIGNLGKTTSLFDNIATLNDERMKFTCELIGIVLKKPIKHWERKDGKSYYFPSISSKQSFNEEILRQREGHHHHHH | soluble |
| SLKWDNSYSVHNAKIDEQHKKLFKLAAKVEVVSDRSVSKNEVKELLAEFFNYMKDHFNDEEKYMQLIGYPNLEEHRKIHKEIIQTMINLIKDIKSTNDLKEKLYIVAKKWLLEHILYEDMKVEKWRSSSLSTDDGGDVS | soluble |
| AEDRSLQAEPWFFGAIKRADAEKQLLYSENQTGAFLIRESESQKGDFSLSVLDEGVVKHYRIRRLDEGGFFLTRRKVFSTLNEFVNYYTTTSDGLCVKLEKPCLKIQV | soluble |
| MELTVKDIQTWLDNYSKVIEEKKDYLSELDTPIGDGDHGNNMARGMAEYKIAFDKKVPTTITETFKVLSMALISKVGGASGPLYGTAFMNMTKATKDLETISSPEQLKEIVQQGLAGIQMRGKAEPGDKTMVDVWAPVAEVIGTEQFNEEKIEQFAEATKDWVAKKGRASYLGERAIGHIDPGAASSALLFEELVKVINQ | not soluble |
| MGSDKIHHHHHHMPEEKQKKSVLEKALKRIEENFGKGSIMILGDETQVQPVEVIPTGSLAIDIATGVGGYPRGRIVEIFGQESSGKTTLALHAIAEAQKMGGVAAFIDAEHALDPVYAKNLGVDLKSLLISQPDHGEQALEIVDELVRSGVVDLIVVDSVAALVPRAEIEGAMGDMQVGLQARLMSQALRKIAGSVNKSKAVVIFTNQIRMKIGVMFGSPETTTGGLALKFYATMRMEVRRGEPIKEGKDVIGNVISVKIVKNKVAPPFKTAQTYIIYGKGIDREYELFNIAVNEGIVDRKGSWYYYTTLKGEEVSLGQGSSNAVQFLKDNPEIAGEIERRIREKYGLLSVEKEEQRKEKKSSGEEAS | not soluble |
| MKDCSNGCSAECTGEGGSKEVVGTFKAKDLIVTPATILKEKPDPNNLVFGTVFTDHMLTVEWSSEFGWEKPHIKPLQNLSLHPGSSALHYAVELFEGLKAFRGVDNKIRLFQPNLNMDRMYRSAVRATLPVFDKEELLECIQQLVKLDQEWVPYSTSASLYIRPTFIGTEPSLGVKKPTKALLFVLLSPVGPYFSSGTFNPVSLWANPKYVRAWKGGTGDCKMGGNYGSSLFAQCEAVDNGCQQVLWLYGEDHQITEVGTMNLFLYWINEDGEEELATPPLDGIILPGVTRRCILDLAHQWGEFKVSERYLTMDDLTTALEGNRVREMFGSGTACVVCPVSDILYKGETIHIPTMENGPKLASRILSKLTDIQYGREERDWTIVLS | soluble |
| MAMNLPADNEGKIKLAMSILVTIINDTGVPRNIRRAAANALTHLRDPRLSPAVRAANAISALEEVSQDPNMPFYARTRIWQVITILETVRD | not soluble |
| GPGSMVEVPRNFRLLQELEAGEKGTGVSQSVSIGLSGMDDIYMHNWNGTILGPPGTTFENRILSLEIHCDEHYPKRPPNIKFISRVNLPCVSSDGTVDKNKFAVFKTWDRNFTMAHCLMELRREMSLPANKKLPQPEEGSTY | soluble |
| MPSGVDGVGLLVRWLIEGSRGGVTRARILMLLRERPRNAHQLSQELGLNYRTVLHHLEVLARHGLIARLYEGYGAPYALTNLAERHWSVIEDSIRRVGVRL | not soluble |
| LFDLGHPLLNRIADSFVKAAGVGALQAVSREAYFTVVDGAGFDSNNVGPPSEITGNKKHRFPNLRGESSKSLDALVKNTGKESLQWGLAAGLYSGITYGMTEVRGGAHDWRNSAVAGALTGAAMAMTTSERTSHEQVVQSALTGAAISTAANLLSSVF | not soluble |
| MGSDKIHHHHHHMELGTPIAEGNTAKIYLVENRVVKVFKGHLPDTEAANEARKQKYAHSCGLSVPEIFDVTEVNGKQAIMMEYINGKTMGEILFENKEQAEYYMSISVGIQHQIHSKVADSLEPMSEKLSRQIKAAPGLSNNQRSALLKRLETLSIDNRLCHGDFHLYNLIKTNNKVTIIDWVDASVGDMCADICRTYLLYSQFSAELADMYLHLSCKKRGLSQADIFQWAPIIAGARLSETVISEKAERLIEIVKHHFPR | not soluble |
| MSLKVGFDNQKYLKMQSEHIRERISKFDNKLYLEFGGKLFDDYHASRVLPGFEPDSKLKMLLELKDQAEIVIVISAIDIEKSKVRGDLGITYDSDVLRLIDAFQSKGLYVGSVTITQYSGQSSADLFKSKLEALGVKVYLHYIIPGYPNNISLILSEDGYGKNEFIQTTRPLVVITAPGPGSGKMATCLSQLYHEHKRGVRAGYAKFETFPIWNLSLKHPVNVAYEAATADLNDVNMIDPCHLEAYGVTAVNYNRDVEIFPVLKAIFLRIDEHCPYKSPTDMGVNMVGNCIIDDQACRDASKQEILRRYYQTLCNVINGTSDGDEVYKLELLLNQVSVSAEDRPVIKAANDLADLNKSPAVAMQLADESIITGKTSELLGASAAVLLNALKALAGIPHETHVISPLAIGPIQQLKTQYLGSSNPRLHTDEVLIALSISAKEDENARKAMEQLPHLKGCEVHTSVILSEVDRKVFHKLGVHLTSEPTYENKKLFHEGHHHHHH | soluble |
| MIIPALDLIDGTVVRLHQGDYGKQRDYGNDPLPRLQDYAAQGAEVLHLVDLTGAKDPAKRQIPLIKTLVAGVNVPVQVGGGVRSEEDVAALLEAGVARVVVGSTAVKSQDMVKGWFERFGADALVLALDVRIDEQGNKQVAVSGWQENSGVSLEQLVETYLPVGLKHVLCTDISRDGTLAGSNVSLYEEVCARYPQVAFQSSGGIGDIDDVAALRGTGVRGVIVGRALLEGKFTVKEAIACWQNA | soluble |
| QRHADLIAARAGRPVTITAVCARDRSKNRDADLSGYAWETDAVALAQRADIDVFVEVMGGSEGAARASTEAALAAGKDVVTANKALLAHHGQALAEMAEAAGLAIRFEAAVAGGIPVIKALTEGLAGNQMRRVMGVMNGTCNYILTR | not soluble |
